Experimental data taken from article PMC5487423 (2017).
Residue numbers refer to the chain shown, from its start. Where two headings read alike, the source gives them in different places.

Columns and labels:
Test in all cases: BLI
CCL15_HUMAN = target: CCL15_HUMAN
CCL23_HUMAN = target: CCL23_HUMAN
CCL27_HUMAN = target: CCL27_HUMAN
CCL24_HUMAN [1] = target: T1, CCL24_HUMAN (Homo sapiens)
T1 chain: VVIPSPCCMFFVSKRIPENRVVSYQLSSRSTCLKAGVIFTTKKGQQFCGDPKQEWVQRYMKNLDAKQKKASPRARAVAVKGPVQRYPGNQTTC

CCL22_HUMAN [2] = target: T2, CCL22_HUMAN (Homo sapiens)
T2 chain: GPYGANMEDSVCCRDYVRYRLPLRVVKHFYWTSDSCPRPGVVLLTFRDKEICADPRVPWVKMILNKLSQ

CCL4_HUMAN = target: T3, CCL4_HUMAN (Homo sapiens)
T3 chain: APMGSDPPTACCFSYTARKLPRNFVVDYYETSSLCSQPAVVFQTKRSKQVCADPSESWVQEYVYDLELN

CCL13_HUMAN = CCL13_HUMAN (Homo sapiens)
Chain of CCL13_HUMAN (Homo sapiens) (chain, as listed by the source): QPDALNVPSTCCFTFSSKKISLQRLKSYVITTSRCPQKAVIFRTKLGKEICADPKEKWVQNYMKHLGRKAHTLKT

CCL4L1_HUMAN = target: T4, CCL4L1_HUMAN (Homo sapiens)
T4 chain: T3 chain with S47G

CCL5 = target: T5, CCL5 (human, UniProt P13501 24-91)
T5 chain: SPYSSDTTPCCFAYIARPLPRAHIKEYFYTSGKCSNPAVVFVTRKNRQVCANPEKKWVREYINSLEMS

CCL11_MOUSE = target: T6, CCL11_MOUSE (Mus musculus)
T6 chain: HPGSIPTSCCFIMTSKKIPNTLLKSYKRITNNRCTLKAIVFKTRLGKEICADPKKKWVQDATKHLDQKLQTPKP

CCL17_HUMAN = target: T7, CCL17_HUMAN (Homo sapiens)
T7 chain: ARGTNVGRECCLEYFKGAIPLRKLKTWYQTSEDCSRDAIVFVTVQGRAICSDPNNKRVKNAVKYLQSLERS

CCL11 = CCL11 (human, UniProt P51671 24-97)
Chain of CCL11 (P51671 24-97): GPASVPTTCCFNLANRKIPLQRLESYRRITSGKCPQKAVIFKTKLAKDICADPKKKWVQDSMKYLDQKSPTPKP

CCL4_MOUSE = target: T8, CCL4_MOUSE (Mus musculus)
T8 chain: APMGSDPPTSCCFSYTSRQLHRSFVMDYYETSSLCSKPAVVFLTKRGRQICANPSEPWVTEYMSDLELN

CCL19_HUMAN = target: T9, CCL19_HUMAN (Homo sapiens)
T9 chain: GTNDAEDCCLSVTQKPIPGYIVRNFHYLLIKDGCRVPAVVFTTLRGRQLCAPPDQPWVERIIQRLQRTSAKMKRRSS

CCL3_MOUSE = target: T10, CCL3_MOUSE (Mus musculus)
T10 chain: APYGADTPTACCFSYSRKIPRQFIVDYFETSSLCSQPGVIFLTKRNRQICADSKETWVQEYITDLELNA

CCL24_HUMAN [3] = target: T1, CCL24_HUMAN
CCL16_HUMAN = target: T11, CCL16_HUMAN (Homo sapiens)
T11 chain: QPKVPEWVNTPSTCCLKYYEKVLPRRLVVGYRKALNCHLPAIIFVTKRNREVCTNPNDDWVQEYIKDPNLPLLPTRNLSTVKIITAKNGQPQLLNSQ

CCL2_MOUSE = CCL2_MOUSE (Mus musculus)
Chain of CCL2_MOUSE (Mus musculus) (chain, as listed by the source): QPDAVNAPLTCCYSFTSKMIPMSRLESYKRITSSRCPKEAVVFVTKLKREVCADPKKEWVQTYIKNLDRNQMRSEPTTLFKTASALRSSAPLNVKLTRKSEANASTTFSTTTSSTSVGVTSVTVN

CCL22_HUMAN [4] = target: T2, CCL22_HUMAN
CCL22_MOUSE = target: T12, CCL22_MOUSE (Mus musculus)
T12 chain: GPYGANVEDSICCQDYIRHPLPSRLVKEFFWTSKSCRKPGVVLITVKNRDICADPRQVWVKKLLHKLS

CCL7 = CCL7 (human, UniProt P80098 24-99)
Chain of CCL7 (P80098 24-99): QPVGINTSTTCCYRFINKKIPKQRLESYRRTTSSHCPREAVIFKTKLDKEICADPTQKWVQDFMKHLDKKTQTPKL

CCL8 = target: T13, CCL8 (human, UniProt P80075 24-99)
T13 chain: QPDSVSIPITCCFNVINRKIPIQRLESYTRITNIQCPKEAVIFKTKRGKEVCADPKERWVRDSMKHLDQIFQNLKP

CCL2 = CCL2 (human, UniProt P13500 24-99)
Chain of CCL2 (P13500 24-99): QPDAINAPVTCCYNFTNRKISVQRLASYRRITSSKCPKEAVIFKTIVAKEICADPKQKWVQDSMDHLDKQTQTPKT

CCL18_HUMAN = target: T14, CCL18_HUMAN (Homo sapiens)
T14 chain: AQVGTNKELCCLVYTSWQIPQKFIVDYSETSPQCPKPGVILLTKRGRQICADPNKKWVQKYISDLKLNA

CCL5_MOUSE = CCL5_MOUSE (Mus musculus)
Chain of CCL5_MOUSE (Mus musculus) (P30882 24-91): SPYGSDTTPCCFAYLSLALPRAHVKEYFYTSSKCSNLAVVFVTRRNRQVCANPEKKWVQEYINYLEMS

CCL3 = target: T15, CCL3 (human, UniProt P10147 24-92)
T15 chain: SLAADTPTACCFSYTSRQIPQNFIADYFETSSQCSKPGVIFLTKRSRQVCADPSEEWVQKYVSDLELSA

B1: P991_AMBCA, purified, C-terminal StrepII-8xHis tag (natural protein)
chain: ETGENGEGTTQPDYDNSTDYYNYEDFKCTCPAPHLNNTNGTVMKPIGCYYTCNVTRCTAPDTYPCYNLTEHQAKNLTTSPTTLCAVGNCDHGICVPNGTKELCFKAPNLEE
Work on B1 yielded a Kd (CCL15_HUMAN) of 160 nM, a Kd (CCL23_HUMAN) of 5.6 nM and a Kd (CCL27_HUMAN) of 39 nM. It also gave a Kd (CCL24_HUMAN [1]) of 6.5 nM, a Kd (CCL22_HUMAN [2]) of 4 nM and a Kd (CCL4_HUMAN) of 5.82 nM. The Kd (CCL13_HUMAN) was 0.419 nM, the Kd (CCL4L1_HUMAN) was 0.827 nM and the Kd (CCL5) was 1.47 nM. The Kd (CCL11_MOUSE) was 1.11 nM, the Kd (CCL17_HUMAN) was 7.66 nM and the Kd (CCL11) was 3.43 nM. For the same binder, the Kd (CCL4_MOUSE) was 0.401 nM, the Kd (CCL19_HUMAN) was 14.4 nM and the Kd (CCL3_MOUSE) was 2.48 nM. It also gave a Kd (CCL24_HUMAN [3]) of 6.54 nM, a Kd (CCL16_HUMAN) of 1.28 nM and a Kd (CCL2_MOUSE) of 24.3 nM. For the same binder, the Kd (CCL22_HUMAN [4]) was 3.97 nM, the Kd (CCL22_MOUSE) was 8.59 nM and the Kd (CCL7) was 0.514 nM. It also gave a Kd (CCL8) of 8.79 nM, a Kd (CCL2) of 12.2 nM and a Kd (CCL18_HUMAN) of 0.209 nM. The Kd (CCL5_MOUSE) was 2.12 nM and the Kd (CCL3) was 1.08 nM.
